Patent publication US20210147573A1 (DENALI THERAPEUTICS, published 2021)

Assays:
[1] = biological target: mouse Rab10 (endogenous, brain and kidney) (UniProt P61027)
[2] = biological target: mouse Rab10 (endogenous, brain and kidney) (mouse) (UniProt P61027); assay: cell-based or functional assay
[3] = biological target: HA-Rab10 (N-terminal HA-tagged Rab10 overexpressed in HEK293T cells; not phosphorylated / LRRK2 inhibitor A-treated lysate) (UniProt P61026)
[4] = biological target: endogenous phosphorylated human Rab8a protein (pT72-Rab8a) (human) (UniProt P61006); assay: western blot, human PBMC; band intensity normalized to actin; mean ± SEM
[5] = biological target: T1, HA-Rab8a (N-terminal HA-tagged full-length Rab8a overexpressed in HEK293T cells); not phosphorylated / LRRK2 … (UniProt P61006 1-204)
T1 construct: mature; also called overexpressed Rab8a protein; not shown: N-terminal HA (hemagglutinin) tag
T1 sequence (looked up): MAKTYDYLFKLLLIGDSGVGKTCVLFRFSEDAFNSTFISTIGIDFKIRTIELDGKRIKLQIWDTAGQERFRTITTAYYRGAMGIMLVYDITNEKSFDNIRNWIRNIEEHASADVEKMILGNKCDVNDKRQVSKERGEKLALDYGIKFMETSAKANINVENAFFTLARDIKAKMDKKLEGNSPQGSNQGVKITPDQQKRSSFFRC
Method: (§1) 96-well ELISA plates were coated with 10 μg/ml anti-rabbit IgG (Millipore) overnight at 4° C. Plates were washed with TBST (Tris Buffered Saline with Tween 20), and blocked with 2% BSA. Hybridoma supernatants were added in different dilutions, and incubated at room temperature for 2 hours. After TBST wash, cell lysates were then added at different protein concentration (0.08 mg/ml or 0.8 mg/ml). […] HRP conjugated anti-HA antibody (1:5000, CST #2999) was used for detection. TMB substrate was added and developed. Absorbance (OD) was measured at 650 nm using a plate reader.

[6] = biological target: T2, HA-Rab8a phosphorylated at T72 (overexpressed with LRRK2 in HEK293T cells, DMSO-treated lysate) (UniProt P61006 1-204, phosphothreonine at Thr72 (numbered with reference to SEQ ID NO:124))
T2 construct: mature; In cell lysate of HEK293T co-transfected with FLAG-LRRK2 or FLAG-LRRK2-R1441C; also called pT72-Rab8a; phospho-Rab8a; not shown: N-terminal HA (hemagglutinin) tag
T2 sequence (looked up): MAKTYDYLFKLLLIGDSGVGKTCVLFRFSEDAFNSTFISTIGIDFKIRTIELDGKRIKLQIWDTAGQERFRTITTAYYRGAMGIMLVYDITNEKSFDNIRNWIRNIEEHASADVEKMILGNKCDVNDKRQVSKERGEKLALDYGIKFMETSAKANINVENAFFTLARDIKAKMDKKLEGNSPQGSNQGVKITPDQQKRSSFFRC

[7] = biological target: T2, HA-Rab8a phosphorylated at T72 …; assay: sandwich ELISA screening assay; OD ratio of DMSO lysate to LRRK2 inhibitor A lysate
Method: as §1

[8] = biological target: T3, HA-Rab10 (N-terminal HA-tagged Rab10 overexpressed in HEK293T cells); not phosphorylated / LRRK2 inhibitor … (UniProt P61026 1-200); assay: sandwich ELISA with cell lysates; same screening and selection strategy used for subclone supernatants
T3 construct: mature; also called overexpressed Rab10 protein; not shown: N-terminal HA (hemagglutinin) tag
T3 sequence (looked up): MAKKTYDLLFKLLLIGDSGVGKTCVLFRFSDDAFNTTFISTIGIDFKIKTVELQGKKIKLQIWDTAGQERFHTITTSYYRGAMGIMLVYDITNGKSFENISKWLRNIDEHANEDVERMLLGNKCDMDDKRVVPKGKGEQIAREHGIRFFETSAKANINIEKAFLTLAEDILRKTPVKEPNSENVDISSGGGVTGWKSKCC

[9] = biological target: T4, endogenously expressed human Rab10 protein (total Rab10, A549 cell lysates) (human, UniProt P61026 1-200); assay: sandwich ELISA with lysates of wild-type A549 cells, Rab10 KO A549 lysates as negative controls
T4 construct: A549 is stated to be a human lung epithelial cell line
T4 sequence: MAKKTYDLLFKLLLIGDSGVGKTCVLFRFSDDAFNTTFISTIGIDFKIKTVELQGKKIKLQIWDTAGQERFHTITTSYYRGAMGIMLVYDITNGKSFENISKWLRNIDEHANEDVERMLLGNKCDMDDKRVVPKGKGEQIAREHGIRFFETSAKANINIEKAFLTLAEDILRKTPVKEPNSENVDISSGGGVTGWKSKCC

[10] = biological target: T5, recombinant Rab10 protein (Abnova, H00010890-P01) (UniProt P61026 1-200); assay: sandwich ELISA with recombinant Rab proteins; same screening and selection strategy used for subclone supernatants
T5 construct: Bought
T5 sequence (looked up): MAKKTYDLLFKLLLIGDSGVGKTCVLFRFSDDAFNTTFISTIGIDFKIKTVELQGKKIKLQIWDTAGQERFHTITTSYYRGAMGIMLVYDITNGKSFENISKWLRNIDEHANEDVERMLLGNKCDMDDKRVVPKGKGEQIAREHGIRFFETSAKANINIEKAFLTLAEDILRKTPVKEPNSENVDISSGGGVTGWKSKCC

mouse LRRK2 (endogenous; absent in LRRK2 knockout mice, Jackson Lab #016121)
reduction of pRab10 level in LRRK2 KO mouse kidney (western blot, normalized to actin) [1]: more than 90% reduction of pRab10 level
reduction of pT73-Rab10 level in LRRK2 KO mouse brain (western blot, normalized to actin) [1]: 30-40% reduction for pT73-Rab10 level

G2019S-LRRK2 (BAC transgene in G2019S-Tg mice, Jackson Laboratories #018785)
increase in pT73-Rab10 level in brain and kidney of G2019S transgenic mice (western blot, normalized to actin) [2]: 20 to 30%

LRRK2 variant R1441G
phosphorylation of Rab10 (pT73-Rab10 western blot signal normalized to total Rab10, against wild-type LRRK2) [3]: demonstrated significantly increased phosphorylation levels of Rab10

LRRK2 variant G2385R
phosphorylation of Rab10 (pT73-Rab10 western blot signal normalized to total Rab10, against wild-type LRRK2) [3]: demonstrated significantly increased phosphorylation levels of Rab10

LRRK2 variant G2019S (HEK293T expression)
phosphorylation of Rab10 (pT73-Rab10 western blot signal normalized to total Rab10, against wild-type LRRK2) [3]: demonstrated significantly increased phosphorylation levels of Rab10

LRRK2 variant Y1699C
phosphorylation of Rab10 (pT73-Rab10 western blot signal normalized to total Rab10, against wild-type LRRK2) [3]: demonstrated significantly increased phosphorylation levels of Rab10

LRRK2 variant I2020T
phosphorylation of Rab10 (pT73-Rab10 western blot signal normalized to total Rab10, against wild-type LRRK2) [3]: demonstrated significantly increased phosphorylation levels of Rab10

B1: anti-pT72-Rab8a monoclonal antibody clone 20 (antibody, V domains shown)
VH: QSVEESGGRLVTPGTPLTLTCTVSGFSLSSYAMGWVRQAPGEGLEYFGIINTGGSAYYTNWAKGRFTISRTSTTVHLKITSPTTEDTATYFCARIAGDTRYYGMDPWGPGTLVTVSS
VL: AAVLTQTPSPVSAAVGGTVSISCQSSKSVRNNNYLAWYQQKPGQPPKLLIYGASTLASGVPSRFKGSGSGTQFTLTISDVQCDDAATYYCAGGYDGGSDDAFGGGTEVVVK
notes: Rabbit monoclonal; also called anti-phospho Rab8a clone 20; anti-phosphorylated T72-Rab8a monoclonal antibody (clone 20)
Ratio of DMSO/LRRK2 inhibitor A [4]: 3.5
OD A650 (LRRK2 inhibitor A) [5]: 0.099 OD A650
OD A650 (DMSO) [6]: 0.827 OD A650
Ratio (DMSO/LRRK2 inhibitor A) [7]: 8.35

B2: anti-total Rab10 monoclonal antibody Clone 10-3 (antibody, V domains shown)
VH: QSVEESGGRLVTPGTPLTLTCTASGFSLSSYYMNWVRQAPGKGLEWIGFISSGGRTYYANWAKGRFTISKTSTTVDLKITSPTTEDMATYFCARAIYSSGNSAMAIWGPGTLVTVSL
VL: AQVLTQTPSSVSAAVGGTVTISCQASQSVYDNSNLAWYQQKPGQPPELLIYYTSTLASGVPSRFSGSGSGTQFTLTISGVQCDDAAIYYCLGAFTCSSGDCNVFGGGTEVVVK
notes: Rabbit monoclonal from rabbit E8473 (Peptide A immunization); hybridoma supernatant; also called anti-total Rab10 clone 10-3
binding result [8]: binds
binding result [9]: binds
binding result [10]: binds

B3: anti-pT72-Rab8a monoclonal antibody clone 24-3 (antibody, V domains shown)
VH: QSVEESGGRLVTPGTPLTLTCTVSGFSLSSYYITWVRQAPGKGREWLGIMNAGTTVHYANWVKGRFAISKTSTTVDLKITSPTTEDTATYFCARARNSVWMDIWGPGTLVTVSL
VL: AAVLTQTPSPVSGAVGGSVTVNCQSDKSVYRDNLAWYQQKPGQPPKLLIYKASTLASGVPSRFRGSGAGTQFTLTISDVQCDDAATYFCAGGYSSDSDTAFGGGTEVVVK
notes: Rabbit monoclonal; also called anti-phospho Rab8a clone 24-3
OD A650 (LRRK2 inhibitor A) [5]: 0.286 OD A650
Ratio (DMSO/LRRK2 inhibitor A) [7]: 5.19

B4: anti-pT72-Rab8a monoclonal antibody clone 170-1 (antibody, V domains shown)
VH: QSLEESGGDLVKPEGSPTLTCTASGFSFSSSYWICWVRQAPGKGLEWIACIYGGSSGTIYYASWAKGRFTISKTSSTTVTLQMTSLTAADTATYFCARRAAGGYGGRLDLWGQGTLVTVSS
VL: AQVMTQTPASVSAAVGGTVTINCQSSESVLNNNYLAWYQQKSGQPPKLLIWTASSLASGVPSRFSGSGSGTQFTLTISDVQCDDAATYYCAGGYYIGSDIFAFGGGTEVVVR
notes: Rabbit monoclonal; also called anti-phospho Rab8a clone 170-1
OD A650 (LRRK2 inhibitor A) [5]: 0.173 OD A650
Ratio (DMSO/LRRK2 inhibitor A) [7]: 6.03
